Results published in CN1827647A (SHANGHAI ZHANGJIANG BIO TECH C, dated 2006).

Biological target: T1, EGFR蛋白 (表皮生长因子受体, 购自晶美生物公司) (UniProt P00533 25-645, limits assumed)
T1 construct: Bought protein used as the coating antigen; also called c-erbB1/Her1
Assay: Scatchard analysis; concluding sentence on the result

- Kd: ~1 nM
B1: 3C6单克隆抗体 (重组人源抗EGFR单克隆抗体, produced by CHO cell line 3C6) (antibody, V domains shown)
VH: QVQLKESGPGLVAPSQSLSITCTVSGFSLTNYGVHWVRQPPGKGLEWLGVIWSGGNTDYNTPFTSRLNISKDNSKSQVFLRMYSLQTDDTARYYCARALTYYDYEFAYWGQGTLVTVSS
VL: not shown
